Results as given in US8642834B2, “Methods for the identification of agents that inhibit mesenchymal-like tumor cells or their formation” (OSI Pharmaceuticals, LLC, priority 2009, dated 2014).

B1: IL-33: Interleukin-33, Peprotech, 50 ng/ml (protein, UniProt O95760 1-270, looked up)
Interleukin-33: MKPKMKYSTNKISTAKWKNTASKALCFKLGKSQQKAKEVCPMYFMKLRSGLMIKKEACYFRRETTKRPSLKTGRKHKRHLVLAACQQQSTVECFAFGISGVQKYTRALHDSSITGISPITEYLASLSTYNDQSITFALEDESYEIYVEDLKKDEKKDKVLLSYYESQHPSNESGDGVDGKMLMVTLSPTKDFWLHANNKEHSVELHKCEKPLPDQAFFVLHNMHSNCVSFECKTDPGVFIGVKDNHLALIKVDSSENLCTENILFKLSET
B2: BMP4: bone morphogenetic protein 4, R&D systems, 100 ng/ml (protein, UniProt P12644 293-408, looked up)
Bone morphogenetic protein 4: SPKHHSQRARKKNKNCRRHSLYVDFSDVGWNDWIVAPPGYQAFYCHGDCPFPLADHLNSTNHAIVQTLVNSVNSSIPKACCVPTELSAISMLYLDEYDKVVLKNYQEMVVEGCGCR
B3: CTGF: Connective tissue growth factor, Peprotech, 20 ng/ml (protein, UniProt P29279 27-349, looked up)
CCN family member 2: QNCSGPCRCPDEPAPRCPAGVSLVLDGCGCCRVCAKQLGELCTERDPCDPHKGLFCHFGSPANRKIGVCTAKDGAPCIFGGTVYRSGESFQSSCKYQCTCLDGAVGCMPLCSMDVRLPSPDCPFPRRVKLPGKCCEEWVCDEPKDQTVVGPALAAYRLEDTFGPDPTMIRANCLVQTTEWSACSKTCGMGISTRVTNDNASCRLEKQSRLCMVRPCEADLEENIKKGKKCIRTPKISKPIKFELSGCTSMKTYRAKFCGVCTDGRCCTPHRTTTLPVEFKCPDGEVMKKNMMFIKTCACHYNCPGDNDIFESLYYRKMYGDMA
B4: BMP7: bone morphogenetic protein 7, R&D systems, 100 ng/ml (protein, UniProt P18075 293-431, looked up)
Bone morphogenetic protein 7: STGSKQRSQNRSKTPKNQEALRMANVAENSSSDQRQACKKHELYVSFRDLGWQDWIIAPEGYAAYYCEGECAFPLNSYMNATNHAIVQTLVHFINPETVPKPCCAPTQLNAISVLYFDDSSNVILKKYRNMVVRACGCH

tested on: CFPAC-1 cells; assay: Induction of EMT by growth factors and cytokines, E-cadherin and vimentin immunoblotting; type: cell-based, human; details: CFPAC-1 cells treated 7 days with ligand
Description: The CFPAC1 cell line was cultured in DMEM media (Gibco #11960) supplemented with 10% FBS (Sigma), 2 mM L Glutamine (Gibco), at 37° C., 5% CO2. For 7 day treatments, cells were seeded on tissue culture plastic in complete growth media and allowed to attach overnight at cell densities that would provide approximately 60-80% confluence at end of experiment. Ligand and/or inhibitor was added the following day (Day 0) in complete growth media and incubated at 37° C., 5% CO2. Ligand source and concentrations used are as follows: [1] From R&D systems, SDF-1α (stromal derived factor-1 alpha) at 100 ng/ml, TRANCE (TNF-related activation induced cytokine) at 50 ng/ml, FGF1 (fibroblast growth factor acidic) at 10 ng/ml, FGF2 (fibroblast growth factor basic) at 10 ng/ml, BMP4 (bone morphogenetic protein 4) at 100 ng/ml, BMP7 (bone morphogenetic protein 7) at 100 ng/ml, IGF2 (insulin-like growth factor 2) at 100 ng/ml, OSM (Oncostatin M) at 100 ng/ml, NRG1 (Neuregulin-1) at 50 ng/ml, PDGFaa (Platelet derived growth factor a) at 50 ng/ml, PDGFbb (platelet derive growth factor b) at 30 ng/ml, Ang2 (Angiopoeitin 2) at 400 ng/ml, amphiregulin at 100 ng/ml, HMGB 1 (Human high-mobility group box 1 protein) at 50 ng/ml; [2] From Genscript, LIF (Leukemia inhibitory factor) at 20 ng/ml, GM-CSF (Granulocyte macrophage colony stimulating factor) at 25 ng/ml, M-CSF (Macrophage colony stimulating factor) at 50 ng/ml; [3] From Anaspec, PAR1 (Protease activated receptor 1 agonist) at 100 μM; PAR2 (Protease activated receptor 2 agonist; peptide SLIGKV-NH2, Cat. No. 60217-1) at 100 μM; PAR4 (Protease activated receptor […] agonist; peptide AYPGKF-NH2, Cat. No. 60218-1) at 100 μM; [4] From Peprotech, HGF (Hepatocyte Growth Factor) at 100 ng/ml; IL-31 (Interleukin-31) at 50 ng/ml, IL-33 (Interleukin-33) at 50 ng/ml, IL1-a (Interleukin-1 alpha) at 10 ng/ml, CTGF (Connective tissue growth factor) at 20 ng/ml, WISP1 (Wnt-1 inducible signaling pathway protein) at 20 ng/ml, PTHrP ([…] hormone-related protein) at 50 ng/ml, MCP1 (monocyte chemotactic protein-1) at 50 ng/ml; and [5] from Sigma, Fulvestrant at 1 μM. Fresh medium containing ligand and/or inhibitor was added 3-4 days after initial dose, and at Day 7 cells were harvested for western blot analysis.
Cells were harvested by washing once with PBS, and lysing on ice for 10 minutes with scraping (using a Cell Lifter, Corning Inc. #3008) in ice cold RIPA buffer (Sigma R0278) containing Protease inhibitor (Sigma P8340), Phosphatase inhibitors (Sigma P2850, P5726) and 200 μM Sodium Vanadate. Supernatents were micro-centrifuged at max speed, 4° C. for 10 minutes. Protein content was quantitated using the BCA method (Pierce #23225) and samples were normalized to total protein in Laemli buffer and heated at 100° C. for 10 minutes. SDS PAGE was run using a Bis-Tris gel system (Invitrogen NuPAGE) with MOPS buffer (Invitrogen NP0001), transferred onto nitrocellulose using the iBLOT system (Invitrogen) and blocked in PBS-T (0.1% Tween 20), 5% non-fat milk or BSA in guidance with primary Ab supplier requirements. All primary antibodies were incubated overnight at 4° C. in PBS-T (0.1% Tween 20) in either 5% non-fat milk or BSA, diluted to the following working dilutions: anti E Cadherin (Santa Cruz #sc-21791) 1:500 dilution; anti Vimentin (BD Biosciences #550513) 1:2000 dilution;); anti GAPDH HRP conjugate (Santa Cruz sc-25778) 1:1000 dilution; anti β-Actin (Sigma, A5441) 1:10,000 dilution. […]

| Molecule | Induction of EMT (E-cadherin down, vimentin up) |
| --- | --- |
| B1 | Partial EMT |
| B2 | Partial EMT |
| B3 | Partial EMT |
| B4 | Partial EMT |
